Broadly, the KM is the concentration of substrate that gives half-maximal velocity. Usually kcat stands for the number of substrate molecules converted per active site and unit of time at saturation.

We go through 21 variants from the supplement of paper PMC7125110.

B1: glmS ribozyme (parent)
chain: AUAAAAGCGCCAGAACUACAGAAAUGUAGUUGACGAGGAGGAGGUUUAUCGAAUUUUCGGCGGAUGCCUCCAAA

± gives the standard error. For part of these data: Variants at the floor of the assay were thinned out. A value given as a limit tells only on which side of the number the result lay.

Common to all, as to settings: with glucosamine-6-phosphate
The variants in data set [1] derive from B1. Briefly: self-cleavage kobs at 40 uM GlcN6P; higher = faster cleavage; RNA array. The essentials: (§1)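 kcat and KM were obtained from weighted Michaelis–Menten fits across concentrations of kobs values. Those came from one- or two-exponential decay fits to per-tile medians normalised to baseline and to non-cleaving reference variants. The variants were barcoded ribozymes transcribed in situ by E. coli RNA polymerase on sequenced MiSeq chips and tracked through a hybridised Cy3 probe at 37 °C, with 40 μM to 10 mM glucosamine-6-phosphate in HEPES/KCl/Mg(OAc)2 buffer flowed in.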

The variants in data set [2] derive from B1. Briefly: self-cleavage kobs at 160 uM GlcN6P; higher = faster cleavage; RNA array. The gist of the method:
as §1

Variants of B1 are the subject of data set [3]. Briefly: self-cleavage kobs at 640 uM GlcN6P; higher = faster cleavage; RNA array. The gist of the method: as §1
The variants in data set [4] derive from B1. Briefly: self-cleavage kobs at 2500 uM GlcN6P; higher = faster cleavage; RNA array. The gist of the method: as §1
Data set [5] covers variants of B1. Description: self-cleavage kobs at 10000 uM GlcN6P; higher = faster cleavage; RNA array. The gist of the method: as §1
The variants in data set [6] derive from B1. Briefly: KM; higher = weaker cofactor use; RNA array. The essentials:
as §1

Variants of B1 are the subject of data set [7]. Briefly: kcat; higher = faster cleavage; RNA array. The gist of the method:
as §1

For G7A C50G, in data set [1], the “self-cleavage kobs at 40 uM GlcN6P” value amounted to 4.24e-05 ± 1.5e-05 s⁻¹. Besides, the “self-cleavage kobs at 160 uM GlcN6P” value in data set [2] turned out to be 6.67e-05 ± 2e-05 s⁻¹.
With G44C C61U, the “self-cleavage kobs at 40 uM GlcN6P” value in data set [1] was less than 1e-05 s⁻¹. Besides, the “self-cleavage kobs at 160 uM GlcN6P” value in data set [2] was less than 1e-05 s⁻¹. The “self-cleavage kobs at 640 uM GlcN6P” value in data set [3] is less than 1e-05 s⁻¹. Moreover, the “self-cleavage kobs at 2500 uM GlcN6P” value in data set [4] was less than 1e-05 s⁻¹. In addition, in data set [5], the “self-cleavage kobs at 10000 uM GlcN6P” value is less than 1e-05 s⁻¹.
On to U65A C71A, for which, in data set [1], the “self-cleavage kobs at 40 uM GlcN6P” value came out at 5.65e-05 ± 2.4e-05 s⁻¹. Also, in data set [4], the “self-cleavage kobs at 2500 uM GlcN6P” value was 0.0012 ± 0.00041 s⁻¹. For the same variant, the “self-cleavage kobs at 10000 uM GlcN6P” value in data set [5] worked out at 0.00104 ± 0.00039 s⁻¹.
In the case of U45C G63U, the “self-cleavage kobs at 40 uM GlcN6P” value in data set [1] is less than 1e-05 s⁻¹. The “self-cleavage kobs at 160 uM GlcN6P” value in data set [2] was less than 1e-05 s⁻¹. Besides, in data set [3], the “self-cleavage kobs at 640 uM GlcN6P” value was less than 1e-05 s⁻¹. For the same variant, the “self-cleavage kobs at 2500 uM GlcN6P” value in data set [4] was less than 1e-05 s⁻¹. Further, the “self-cleavage kobs at 10000 uM GlcN6P” value in data set [5] is less than 1e-05 s⁻¹.
As for C11G U69G C71U, in data set [1], the “self-cleavage kobs at 40 uM GlcN6P” value came to 4.35e-05 ± 2.1e-05 s⁻¹.
For U54G U56A G63U, the KM in data set [6] turned out to be 1560 ± 740 µM.
On to C16A C34A G37U C50A C61A, for which the “self-cleavage kobs at 40 uM GlcN6P” value in data set [1] is 0.000276 ± 6.5e-05 s⁻¹. In addition, the “self-cleavage kobs at 10000 uM GlcN6P” value in data set [5] amounted to 0.000316 ± 6.4e-05 s⁻¹.
For G7A A48U U49G, in that order: less than 1e-05 s⁻¹ and less than 1e-05 s⁻¹.
Consider G13U U30A, for which the kcat in data set [7] was 5.44e-05 ± 3.6e-06 s⁻¹. Besides, the KM in data set [6] is 728 ± 260 µM. Further, the “self-cleavage kobs at 640 uM GlcN6P” value in data set [3] came to 3.03e-05 ± 1.5e-05 s⁻¹. Further, in data set [4], the “self-cleavage kobs at 2500 uM GlcN6P” value amounted to 3.78e-05 ± 1.1e-05 s⁻¹. In addition, in data set [5], the “self-cleavage kobs at 10000 uM GlcN6P” value was found to be 5.22e-05 ± 8.6e-06 s⁻¹.
Take G41U A52C: the Michaelis constant (KM) in data set [6] amounted to 3260 ± 480 µM.
Consider C16U G60C C67A, for which, in data set [1], the “self-cleavage kobs at 40 uM GlcN6P” value was less than 1e-05 s⁻¹.
In the case of C16A G29C, in data set [7], the turnover number (kcat) worked out at 0.00401 ± 0.0015 s⁻¹. Further, the Michaelis-Menten constant (KM) in data set [6] was 1940 ± 970 µM. For the same variant, the “self-cleavage kobs at 40 uM GlcN6P” value in data set [1] is 0.000114 ± 1.3e-05 s⁻¹. The “self-cleavage kobs at 160 uM GlcN6P” value in data set [2] was 0.000215 ± 4.5e-05 s⁻¹. In data set [3], the “self-cleavage kobs at 640 uM GlcN6P” value was 0.000949 ± 0.00011 s⁻¹. In data set [4], the “self-cleavage kobs at 2500 uM GlcN6P” value is 0.00217 ± 0.0003 s⁻¹. Moreover, the “self-cleavage kobs at 10000 uM GlcN6P” value in data set [5] stood at 0.00391 ± 0.00075 s⁻¹.
Consider G38U A53C, for which the “self-cleavage kobs at 40 uM GlcN6P” value in data set [1] was less than 1e-05 s⁻¹. Further, in data set [2], the “self-cleavage kobs at 160 uM GlcN6P” value was less than 1e-05 s⁻¹. The “self-cleavage kobs at 640 uM GlcN6P” value in data set [3] was less than 1e-05 s⁻¹. In addition, the “self-cleavage kobs at 2500 uM GlcN6P” value in data set [4] was less than 1e-05 s⁻¹.
For A14U G43C U69A, in data set [1], the “self-cleavage kobs at 40 uM GlcN6P” value is less than 1e-05 s⁻¹. Moreover, in data set [5], the “self-cleavage kobs at 10000 uM GlcN6P” value was less than 1e-05 s⁻¹.
On to G13C G29U G32A U54G U65C C68G U69G, for which the “self-cleavage kobs at 40 uM GlcN6P” value in data set [1] amounted to 0.00014 ± 4.1e-05 s⁻¹. For the same variant, the “self-cleavage kobs at 160 uM GlcN6P” value in data set [2] was 0.000198 ± 5.6e-05 s⁻¹. For the same variant, the “self-cleavage kobs at 640 uM GlcN6P” value in data set [3] worked out at 0.000623 ± 0.00016 s⁻¹. For the same variant, the “self-cleavage kobs at 2500 uM GlcN6P” value in data set [4] came out at 9.24e-05 ± 2.8e-05 s⁻¹. Further, the “self-cleavage kobs at 10000 uM GlcN6P” value in data set [5] was found to be 0.000151 ± 3.1e-05 s⁻¹.
Take G59U C61U: the “self-cleavage kobs at 40 uM GlcN6P” value in data set [1] is less than 1e-05 s⁻¹. In data set [3], the “self-cleavage kobs at 640 uM GlcN6P” value is less than 1e-05 s⁻¹. The “self-cleavage kobs at 10000 uM GlcN6P” value in data set [5] was less than 1e-05 s⁻¹.
Turning to C11U C58G C68U, in data set [1], the “self-cleavage kobs at 40 uM GlcN6P” value was found to be 7.67e-05 ± 2.5e-05 s⁻¹. For the same variant, the “self-cleavage kobs at 160 uM GlcN6P” value in data set [2] is 0.000349 ± 9.1e-05 s⁻¹. In addition, in data set [3], the “self-cleavage kobs at 640 uM GlcN6P” value was determined as 0.000262 ± 7e-05 s⁻¹. For the same variant, in data set [5], the “self-cleavage kobs at 10000 uM GlcN6P” value amounted to 5.66e-05 ± 1.6e-05 s⁻¹.
Take G9C C34A A42U G43A: the “self-cleavage kobs at 40 uM GlcN6P” value in data set [1] was less than 1e-05 s⁻¹.
As for G43U C70G, the “self-cleavage kobs at 40 uM GlcN6P” value in data set [1] is less than 1e-05 s⁻¹. Also, the “self-cleavage kobs at 160 uM GlcN6P” value in data set [2] was less than 1e-05 s⁻¹. The “self-cleavage kobs at 640 uM GlcN6P” value in data set [3] is less than 1e-05 s⁻¹. Further, the “self-cleavage kobs at 2500 uM GlcN6P” value in data set [4] is less than 1e-05 s⁻¹. Further, the “self-cleavage kobs at 10000 uM GlcN6P” value in data set [5] was less than 1e-05 s⁻¹.
On to G51C U57G, for which the “self-cleavage kobs at 40 uM GlcN6P” value in data set [1] is less than 1e-05 s⁻¹. Moreover, the “self-cleavage kobs at 160 uM GlcN6P” value in data set [2] is less than 1e-05 s⁻¹. Further, the “self-cleavage kobs at 640 uM GlcN6P” value in data set [3] is less than 1e-05 s⁻¹. In data set [4], the “self-cleavage kobs at 2500 uM GlcN6P” value is less than 1e-05 s⁻¹.
With C10U C61U, in data set [1], the “self-cleavage kobs at 40 uM GlcN6P” value was less than 1e-05 s⁻¹. For the same variant, the “self-cleavage kobs at 640 uM GlcN6P” value in data set [3] was less than 1e-05 s⁻¹. Besides, the “self-cleavage kobs at 10000 uM GlcN6P” value in data set [5] is less than 1e-05 s⁻¹.
